The values that follow come from publication PMC11041684.

The assay has as its target Schlegelella thermodepolymerans KpsE (L77C, S138C) (Schlegelella thermodepolymerans). The assay can be described thus: cryo-EM structure; KpsMT(E151Q)-KpsE, co-expressed and purified in LMNG (100 mM NaCl, 50 mM Tris pH 7.5, 0.025% LMNG, 5 mM MgCl2), supplemented with 2 mM ATP before grid preparation.

On to “Schlegelella thermodepolymerans KpsE (L77C, S138C) (natural protein)”, for which the stoichiometry N worked out at 8.

For orientation: stoichiometry N means a count of units in the complex or per binding partner.
